Measurements as given in patent US20240003881A1.

Columns and labels:
β10-S (SARS-CoV-2) = β10-S (SARS-CoV-2) (UniProt P0DTC2); test: tNLuc split-luciferase assay in solution with β9-G; CR3022 dose response, allosteric sigmoidal fit
β10-S-β10 (SARS-CoV-2) [1] = molecular target: β10-S-β10 (SARS-CoV-2) (UniProt P0DTC2); test: as above
β10-S-β10 (SARS-CoV-2) [2] = molecular target: β10-S-β10 (SARS-CoV-2) (UniProt P0DTC2); test: tNLuc assay (β9-G/β10-S-β10); CR3022 dose response with 0-100 µg/mL human IgG, allosteric noncompetitive inhibition model

## CR3022 (antibody)
β10-S (SARS-CoV-2)
  Kd: 0.42 µg/mL
β10-S-β10 (SARS-CoV-2) [1]
  Kd: 0.23 µg/mL
β10-S-β10 (SARS-CoV-2) [2]
  Kd: 0.22 µg/mL
